In the DeepSol protein solubility set:

test: soluble on expression in E. coli; label from the status in PepcDB or PDB records

| Sequence | soluble on expression in E. coli |
| --- | --- |
| MGSDKIHHHHHHMTSPCPQILWNMTRKCNFSCHYCYFPHDNSPVSDSLPVAALLDFLRSRGGEWLVGLTGGEPFIYPYFVDICSAIAAEHRIGIDTNLSVTPVVKRFARHVPPDRVHDIYAALHIEERERRGAVDAFIRNYHTLAGRGFTVKVNYVVHPSLVQRFAADCEFFGRHGIPLTPRPFKGVYEGRRYPEGYGSTAAAIFTQHPEAGRKTVFNFHGVPCHGGHTFLRMEPDGTVLRCPGDKTVLGNVLSGTVQTESGPTPCRMHRCPCQGVEHILPDAAQQDFIEGVRAYVVGDLPAAQRAFTAAHSRAPAMTQAANNAGVAAFAAGDAQAAACCFARAAADDPVTPLYAANLKLARRAAQPSPPSGTENETPELSLAVNYQRTGN | not soluble |
| MENESKTINIELPEEIAQGNYCNLCIVMHSPSEFVLDFIRMVPNRDTARVQNRIILTPDNAKRLLTTLSDNIHRYEVEHGEIHTEQRVSDATFTFPTKIKGEA | soluble |
| KTHFVIQLKEDSQLMDEVVVVGFGTQKKINLTGAVTAVNIQETLGDRPITNVTAALQGVVPGLKIEGTTGTPGDNLSYNIRGTTSINGGGPLVLVNNVPMDINMIDPQDIESVSVLKDAASAAIYGARAAFGVILITTKQGKKDM | not soluble |
| MSLSVRVDYALVGRELEAREAVCLVFDGSDGRLSSISSSSSCPESSPKFTIAVPPSVNAHIHSSDVQWPEVGNDLSLEELVAPPRGLKHLLLQQAGERACAEAAVGVYRALGRMVVRAAADFREPAAGGCLPVREILATLGGLYTRVVLMGRPGDPYGLEGCDGIGLNSPLDVDPKRMRLLKKSGMRIHAHVAETREMRLEGDLEAALDIGVDTVIHGTHLSREDLELLREHGVTLVLSPRSNMWHGVGLPPVAEAYRVGVKIAFGTDNAAWNMLDPWDEARQAMLVARLQGVKDPGLPHYILKGLLSWGYEALGMEPPALAEGADMCSVALMRLEGYEAGLFRRSFSRYYTLLKIARGDLLQPVCTISGGLLEPAEGHHHHHH | soluble |
| SQAHVVDFELQYREAIDCPCRTFGVDRSIGQYLHILVCIEKIAVYQLHQIGSVLIGFVDTAFDYQRISRIDVGITYNIFEMPLGIIDPILQKQIMLDRLRP | not soluble |
| MGSDKIHHHHHHMSELLGLIVDARPLQAHFRIPHTSLLLDTYPFPPKTTAVGMLAGCMGLGEEGFKKLLEKIKYGVIIEDPGEKIEEVSVIYKNPYSPSYPITRVSLYKPRFRMFFAGEERVIEEAYEGLLDPKFVPYMGDSESLFYPGKKRYVEVVDVQEGKEDILRSVIPEVKFKEFVPLRRKVLVPKVYEAPVKFTYKGKSRRAVYGRFIAFSGGYVKLEKKIDVLLFDGEPIATF | not soluble |
| MPKGNKKPNEKKEELEKFAKELQGSDSDEDAVVIEQPTVEPKLPQNDSSSSNKIVLSQAEKDLLRTELDKTEEEISTLKQVLSARQKHAAELKRKLGLTPFSELSQDINRSLKTVTDTDAYQKTAEVAAATSDTVKEKWNDMRNSSLFKSFESKLGSALNNAKMAASTSIDHLAGAARGPSQTGTPVAEEAKPIS | soluble |
| MGSDKIHHHHHHMQERLIRLLEAIAGAANPPNATDLAQLTGLPRATIYRNISSLVDCGFVEVTDCGSRYVLGMRFVKIALTGKSDMHVINAVSAMMQQVVKTSGETGFLARYRGGRVDLIHIETPADPSLSYIYPGLGPRPAHACSSAKAIAAFITPELRDELLDIQPMRFNQNTITDPDQIQRELNQVRRYGYAICDGEIDEGVSSVAVPINVDRLGAIFSMGVVGPSNRIKPMVQNRILPVLSAEAVRAAAAIQHCSVVDAETTNAEALADAREGLNKTH | not soluble |
| MARVRFENKRVNMSKLSQFGFEPNQNGQYQFRILIMQGQFEMIIELNTDGSLNTTLTDTTTSEVYVLHLTSQAHGQFVGQVAQAYQDVLYNIEQHCYDNDVFQSTPERKLIAQVKAAYGDDLEFLWPKFPQNAVWRRSDTHKWYGALLTVTSDKLALPGATHVVTVLDLRARPEDLSMLIDGQHYLPGYHMNKKHWYSILLDDVVPLATIMDDVKVSYMLAKLEHHHHHH | not soluble |
| MRSIYLCRHGESELNLRGRIGGDSGLSARGKQYAYALANFIRSQGISSLKVWTSHMKRTIQTAEALGVPYEQWKALNEIDAGVCEEMTYEEIQEHYPEEFALRDQDKYRYRYPKGESYEDLVQRLEPVIMELERQENVLVICHQAVMRCLLAYFLDKSSDELPYLKCPLHTVLKLTPVAYGCRVESIYLNV | soluble |
| MSCALLIENLTCQYDAQTVLKSLSLQVNPGEIVCLLGASGCGKTTLLKAIAGLLPLASGQLSLNCVTLDDGKRWLPPEQRNIGMIFQDYALFPHLTVAQNVGFGLDAMPAKQKEAKIAEMLALVHLDAFAERYPHQLSGGQQQRVAIARALAYKPDLLLLDEPFSNIDTQVRHELIIEIRKIFKQQGVTAIFVTHSREEAFAFADKMAVMNRGVIEQYGTAAELYYQPSSQFVADFLGGGSYLSAKRISETQYQTALGVVEAIARQPIAVEAECKLLLRPQQVQIRAEEESSVTVTEQQFMGDHCRYLIDAHGTQLIATSSQPLELGQAVSVNIDTQGVLAFA | not soluble |
| MAKEGSVAPKERINVTFKPATGGNQEEIELPLKLLAIGDYTHRRDERKVEDRKPISIDKTTFDEVLAKQELELTLSVPNRLQDEEGVAEELPVKLRVNSMKDFNPASLVEQVPELKKLMELRDALVALKGPLGNAPAFRKAIEGVLADDESRGRVLGELGLKAPAPDA | not soluble |
| SNAMEVMLMSKYATLKYADKNIEIELPVYSPSLGNDCIDVSSLVKHGIFTYDPGFMSTAACESKITYIDGGKGVLLHRGYPIEEWTQKSNYRTLCYALIYGELPTDEQVKSFRQEIINKMPVCEHVKAAIAAMPQHTHPMSSLIAGVNVLAAEHIHNGQKESQDEVAKNIVAKIATIAAMAYRHNHGKKFLEPKMEYGYAENFLYMMFADDESYKPDELHIKAMDTIFMLHADHEQNASTSTVRLSGSTGNSPYAAIIAGITALWGPAHGGANEAVLKMLSEIGSTENIDKYIAKAKDKDDPFRLMGFGHRVYKNTDPRATAMKKNCEEILAKLGHSDNPLLTVAKKLEEIALQDEFFIERKLFSNVDFYSGIILKAMGIPEDMFTAIFALARTSGWISQWIEMVNDPAQKIGRPRQLYTGATNRNF | soluble |
| MGSDKIHHHHHHMIHRQTNQLNTDNLEKKQRQYKYAFNLAEIDSESFPMHIFRKYAKDVFEDHQLSLLQRGERQGEYILRQQISHYLFNSRGVTCHPNQIIVGSSTSQLLDMITNLLKKEEFIIEQPSYPPIKHTLDKKGISYIQVPVEQNGIQIDPILNTNNNILYITPSHQFPTGYVTNLKKRTQLINWSHQAKQRYIIEDDYDSEFRYFGKPIPALQSLDTKGKVIYISTFSKSLYPSCRIAYIVLPQNLMHKYNNQKYKEGNTVPVHVQHMIAQFMISGKFERHLNKMRKIYRDKLDYILKRLKPYNTQIKIEGALTGMHFTITVNNGLSMKQCLKNAKKNNLKLKPYHYENYSKVYPKFILGFGGIKKEELEDHVNALIHSLVI | not soluble |
| GPGSMSEHATTDLEGRYAQLATIQSEIDAAPLLSPTVEKLGDGCNLMTEFSDNPPMLVKVVSLWRNEETKYKGIRYARRDGNCFYRSVVFGMHESLLNNKERAGAHLERITDLSRQVVADYGNFAEDFCHPAVEMAKKIESGECSTVEQLYELSTNGEAEYALYFYRYAVSHHIRTHEDDFLPFVVGMGHETVSEFCSVEVDAVASEADNVQVVAFAQCFDVRVIVEYVDGREGDCTTRHTFQQKDSHDANEYTTIEVTLLYRPGHYDLLYK | soluble |
| SESSESKASSGLPIDLRGKRAFIAGIADDNGYGWAVAKSLAAAGAEILVGTWVPALNIFETSLRRGKFDQSRVLPDGSLMEIKKVYPLDAVFDNPEDVPEDVKANKRYAGSSNWTVQEAAECVRQDFGSIDILVHSLANGPEVSKPLLETSRKGYLAAISASSYSFVSLLSHFLPIMNPGGASISLTYIASERIIPGYGGGMSSAKAALESDTRVLAFEAGRKQNIRVNTISAGPLGSRAAKAIGFIDTMIEYSYNNAPIQKTLTADEVGNAAAFLVSPLASAITGATIYVDNGLNSMGVALDSPVFKDLDK | soluble |
| MPNYPFPILWLPPKPLGHLLRNMDFRNLIIFSLTSKPAKWLTELLNMDAPMISVHVDHQINIIVSSVKSVTYHASNGSLRESRGKIDRQINFPGSLKQFVEHLLHIFKEHKIDDLEIMCNSVYQYKPDIQALKGIKMRTLKLRYQESILKMFGTSADRIEFSTIKSAELENSKDILIQNFDYLKFDFEGSLTADNLIGINGKVVNIWAADIEMKDVNIFLKHWLKGSNPRLEKLILKTYRLDTDGNSVEDSVADLFRDLDCESIAESQFEILRDDESIAKISILEHGYWYNKIHCYFSLNEAMNLYTTYFWDIVHLQEKILH | not soluble |
| MKKVLLVNGPNLNRLGVREVNVYGKGTLATLEADMKQEAEAMGVELECFQSNHEGAIIDRIHEAEDIYEGIILNPGAFTHYSYAIRDAIASISIPVIEVHISNIHQRESFRHESVTAAVCAGQIVGFGFYGYKLALFALMEKLREA | not soluble |
| MGSDKIHHHHHHMLDQQHIQYFKNLVGGEDFFTDLAHLNAYCYDATKERHLPSGVIFPKNEQEISQILKYCNEHRIIVVPRGAGSGFTGGALSVSGGLVLSVEKHLDKILEIDTKNLIARVEPGVINKHFQNEVEKLNLFYPPDPASENQSTLGGNVAENAGGMRAAKYGITKDYVMALRVVLANGEIIRAGKKTIKDVAGFNVAGLMIASEGCLGVISEITLKLLAKPPLKQSAMGVFNHIEDAMNAVYKTMSSGVTPVAMEFLDNLSIKAVEERFSKGLPKDAGAILITQVDGVVKEQIAWQLNEIEKHFKANCCVDFKIAQNEQEEQDLWFSRRNASQSISVYGKKKLNEDVTVPRASLPSLLQEVAKISQKYGFKIPCFGHTGDGNVHVNIMLEDPKRDLEKGHEAMEEIFQAAISLEGTLSGEHGIGLSKAKFMPLAFNHSEMELFRNIKKALDPNNILNPFKMGL | not soluble |
| MPYPIEEKLVIGVASSALFDLSVSDDIYQTQGVEAYRQHQEQNLDEPFPRGVALPFIRRFLSINKAFPDQLPVEVVLLSRNSPETGLRVFRSISHYQLDITRAAFMSGRSPYEYIPAFNASLFLSANEEDVQKAIDANYPAGRVLPTRIYDDEIDTELRVAFDFDGVIADDEAESVYKRNDNLDDFQEHERMHKSTPHSPGPLADLYRKLSRIRMLEDRKLAEDPTYQRILRIAIVTARNAPSHERVVTTLKDWGVSPDECFFLGGMDKPRVLSILKPHVFFDDQRTHLQSPAGNLPMVHVPFGVANRVRSPQAPDVKQDQLPISASSCMPLEHHHHHH | soluble |
| MATAATTASRSTTAGTSSTMGTPATTSAASRTTTTGTTTTMGQLIT | not soluble |
| MNLEQLINVLGLLVWIAARAVSRVGPHGSGLVYRELHDFYGYLQLDLLGPVVAGNRSVRTWREQADRARGTFAWRSGLNTSRILPVGSMYRGSDALPAGLYRPEEEVFLLLNRCHGPLSTPKNACLAEVGVANATFLSRFNVGDFHGASWENGTAPDGEPGVCLEHHHHHH | not soluble |
| MSDTPATRDFGLIDGRAVTGYVLSNRRGTRVCVLDLGGIVQEFSVLADGVRENLVVSFDDAASYADNPFQINKQIGRVAGRIRGAAFDINGRTYRVEANEGRNALHGGSHGLAVTRFNAVAADGRSVVLRSRLQQSADGYPNDLDLDISYRLDEDDRLTVSYRATALGDTVFDPTLHIYWRLDAGLHDAVLHIPQGGHMPADAEKLPVSTVSDDLEVFDFSRPKPLDAAVAALRRETGRAGFDDAYRVPSDIGRPAAVLQAGRRRRISIYSDRNGLVIFTAAPQDFARHDAGVYDALATEAQTLPDSLNWPEFGNIRLNKGDTREATIAYGIESLS | not soluble |
| AMEDELKILIGKMRYRSSFGQNALQHSKEVALLAGLIAEQLGGDKKLARRAGILHDIGKALTQELGRDHVNLGVEVCKRHKEDPVVINAIYAHHGHEEILSVECASVCAADALSAGRPGARRKSDEEYAKRMQALEEIALEFDGVEKAYAMESGRELRVIVKSNQ | not soluble |
